In US20220002412A1 (SINOCELLTECH, published 2022):

Assays:
[1] = molecular target: T1, recombinant human PD-1 protein (Sino Biological, Inc, Cat. 10377-H08H) (human, UniProt Q15116 25-167); assay: competition ELISA: coated recombinant human PD-1, blocked ligand PD-L1-Fc-biotin, antibody at three concentrations
[2] = molecular target: T2, recombinant mouse PD-1 protein (mouse, UniProt Q02242 25-167, limits assumed, biotinylated in the Octet assay); assay: Octet biolayer interferometry on biotinylated mouse PD-1 protein
T2 construct: Bought protein; also called murine PD-1; biotinylated mouse PD-1 protein
T2 sequence (looked up): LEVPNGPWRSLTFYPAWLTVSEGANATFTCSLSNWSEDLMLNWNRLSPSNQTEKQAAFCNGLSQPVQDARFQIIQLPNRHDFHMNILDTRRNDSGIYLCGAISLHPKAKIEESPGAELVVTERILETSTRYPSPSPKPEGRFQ

[3] = molecular target: T3, recombinant monkey PD-1 protein (monkey, UniProt B0LAJ3 25-170, Biotinylated in the Octet assay; the site of biotinylation is not stated.); assay: indirect ELISA, coated antigen titrated (antigenic EC50), antibody at 2 µg/mL
T3 construct: Bought protein; also called biotinylated monkey PD-1 protein

[4] = molecular target: T4, biotinylated FCGRT-His+B2M protein (human, UniProt P55899 24-297; P61769 21-119, biotinylated); assay: ELISA at pH 6.0, biotinylated FCGRT-His+B2M captured on avidin, antibody at 270 µg/mL
T4 construct: Bought from Sino Biological; also called recombinant human FcRn protein; human FcRn protein

[5] = molecular target: T3, recombinant monkey PD-1 protein; assay: Octet (BLI), biotinylated monkey PD-1
[6] = molecular target: T5, recombinant CD16a-AVI-His (V158)+BirA protein (UniProt P08637 17-208, +BirA (AVI tag, detected with streptavidin/HRP)); assay: ELISA: antibody titrated on coated recombinant human PD-1, then recombinant CD16a-AVI-His (V158)+BirA with streptavidin/HRP
T5 construct: Bought from Sino Biological; It is the V158 allotype as printed; also called recombinant CD16a (V158) protein; recombinant CD16a protein

[7] = molecular target: T3, recombinant monkey PD-1 protein; assay: indirect ELISA, coated antigen titrated, antibody at 2 µg/mL
[8] = molecular target: T1, recombinant human PD-1 protein (Sino …); assay: monoclonal phage ELISA on recombinant human PD-1 protein

T3 sequence (B0LAJ3 entry or part of it limits assumed): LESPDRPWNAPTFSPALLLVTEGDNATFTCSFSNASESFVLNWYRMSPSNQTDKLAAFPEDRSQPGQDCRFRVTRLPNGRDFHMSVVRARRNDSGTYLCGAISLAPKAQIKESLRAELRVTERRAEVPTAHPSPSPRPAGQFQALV
T1 sequence (Q15116 25-167 limits assumed): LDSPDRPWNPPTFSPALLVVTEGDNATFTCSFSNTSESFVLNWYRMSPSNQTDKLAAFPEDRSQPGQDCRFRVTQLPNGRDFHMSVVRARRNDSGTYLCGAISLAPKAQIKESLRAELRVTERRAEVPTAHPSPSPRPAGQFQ
T4 sequence (P55899 24-297 limits assumed, chain 1 of 2): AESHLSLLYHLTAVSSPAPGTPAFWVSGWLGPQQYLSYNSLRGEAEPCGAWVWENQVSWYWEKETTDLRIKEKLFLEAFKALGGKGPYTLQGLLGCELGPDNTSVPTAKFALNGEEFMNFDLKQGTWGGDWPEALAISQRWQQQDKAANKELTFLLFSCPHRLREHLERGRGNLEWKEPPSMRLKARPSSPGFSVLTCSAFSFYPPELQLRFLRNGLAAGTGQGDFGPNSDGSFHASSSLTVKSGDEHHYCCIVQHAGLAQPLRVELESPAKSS
T4 sequence (P61769 21-119 limits assumed, chain 2 of 2): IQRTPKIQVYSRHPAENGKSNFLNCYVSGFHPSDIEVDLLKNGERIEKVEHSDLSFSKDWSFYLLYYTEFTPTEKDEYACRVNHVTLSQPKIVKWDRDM
T5 sequence (P08637 17-208 F176V limits assumed): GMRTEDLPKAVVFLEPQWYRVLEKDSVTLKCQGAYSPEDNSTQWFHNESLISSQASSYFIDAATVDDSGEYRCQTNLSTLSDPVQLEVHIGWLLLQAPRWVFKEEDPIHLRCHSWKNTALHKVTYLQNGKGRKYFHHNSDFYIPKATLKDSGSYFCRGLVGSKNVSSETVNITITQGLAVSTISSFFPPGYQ

B1: murine antibody PD1-M944 (antibody, mouse IgG1, V domains shown)
VH: EVQLVESGGGLVKPGGSLKLSCAASGFTFSSYGMSWVRQTPEKRLEWVATISGGGRDTYYSDSVKGRFTVSRDNAKNNLFLQMSSLRSEDTALYYCSRQYGTVWFFNWGQGTLVTVSA
VL: not shown
notes: Full antibody with mouse IgG1 heavy chain constant region and mouse kappa light chain constant region; Expressed in HEK-293 cells
B1: binds [1].

B2: humanized antibody PD1-H944 (antibody, human IgG4 S228P, kappa)
heavy: not shown
light: EIVLTQSPATLSLSPGERATLSCRASESVDSYGNSFMHWYQQKPGQPPRLLIYAASNQGSGVPARFSGSGSGTDFTLTISSLEPEDFAMYFCQQSKEVPWTFGQGTKVEIKRTVAAPSVFIFPPSDEQLKSGTASVVCLLNNFYPREAKVQWKVDNALQSGNSQESVTEQDSKDSTYSLSSTLTLSKADYEKHKVYACEVTHQGLSSPVTKSFNRGEC
In the case of B2, the binding result [2] is reported as “no binding (tested: 13.30 nM)”, the EC50 [3] is reported as 0.0327 µg/mL and the “binding relative to Nivolumab at 270 µg/mL” value [4] is reported as roughly 1.62 times. The Kd [5] was 0.108 nM and the binding result [6] was “no binding (tested: 80 µg/mL)”.

B3: Nivolumab (antibody, V domains shown)
VH: QVQLVESGGGVVQPGRSLRLDCKASGITFSNSGMHWVRQAPGKGLEWVAVIWYDGSKRYYADSVKGRFTISRDNSKNTLFLQMNSLRAEDTAVYYCATNDDYWGQGTLVTVSS
VL: EIVLTQSPATLSLSPGERATLSCRASQSVSSYLAWYQQKPGQAPRLLIYDASNRATGIPARFSGSGSGTDFTLTISSLEPEDFAVYYCQQSSNWPRTFGQGTKVEIK
B3 was tested, and the EC50 [7] was 0.0802 µg/mL and the Kd [5] was 0.131 nM.

B4: M944 scFv antibody (scFv)
scFv: DIVLTQSPASLAVSLGQRATISCRASESVDSYGNSFMHWYQQKPGQPPKLLIYAASNQGSGVPARFSGSGSGTDFSLNIHPMEEDDTAMYFCQQSKEVPWTFGGGTKLEIKSSGGGGSGGGGGGSSRSSEVQLVESGGGLVKPGGSLKLSCAASGFTFSSYGMSWVRQTPEKRLEWVATISGGGRDTYYSDSVKGRFTVSRDNAKNNLFLQMSSLRSEDTALYYCSRQYGTVWFFNWGQGTLVTVSA
notes: Tested as a monoclonal phage clone (pComb3x phage display); Any phage fusion partner is not described; also called PD1-M944 scFv
B4: binds [8].
